Consider one molecule from patent US6500431B1, “Inhibitors of angiogenesis and tumor growth” (University of Southern California, priority 1998, dated 2002).

One data set concerns KS-SLK or KS Y-1 cells. Description: KS-SLK or KS Y-1 tumors in nude mice. Type of data set: in vivo. Conditions: daily subcutaneous 1, 10 and 20 mg/kg after one week of tumor development. How it is done: In order to determine the anti-angiogenic activity of the recombinant Saposin B, tumor cells were implanted in immuno-deficient mice and treated with either Saposin B or buffer alone.
Nude mice were injected with 2×10^6 KS-SLK or KS Y-1 cells subcutaneously in a total volume of 100 μL. After one week of tumor development, the mice were injected subcutaneously daily with either PBS or Saposin B at concentrations of 1, 10 and 20 mg/kg for a total protein concentration of […]. The tumor size was measured three times a week. The results represent the median of 4 mice in each group.

The test system of data set [1] is CD34+/Flk-1+ cells from cord blood. Description: Growth of CD34+/Flk-1+ progenitors on fibronectin coated dishes. Type of data set: cell-based, human. As to conditions: 50 ng/mL Saposin B. The text has this:
A bone marrow derived human CD34+/Flk-1+ progenitor cell can be mobilized into the blood stream in response to tumor induced signals such as VEGF and cytokine production. These cells can target to sites of angiogenesis where they mature into activated endothelial cells and thus contribute to the generation of new blood vessels at the tumor site. By blocking the production of these cells or by targeting these cells (i.e., the CD34+/Flk-1+ progenitors and the activated endothelial cell they can become), the angiogenesis/vasculogenesis required for tumor growth can be reduced or halted. […] The adherent cells take on a spindle-shaped morphology characteristic of the activated vascular endothelial cells typical of the angiogenic process. These cells express endothelial-specific markers including factor VIII, ulex europaeus agglutinin-1 (UEA-1), endothelial constitutive nitric oxide synthase (ecNOS), and E selectin. Further, when these cells (peripheral blood Flk+ progenitors) are infused into mice, they incorporate into newly formed blood vessels at site of injury. These observation identify CD34+/Flk-1+ bone marrow derived progenitors as a putative precursor to vascular endothelial cells. Preventing these cells from colonizing at distal sites of angiogenesis in tumors has enormous implication for the treatment of tumors. […]

Data set [2] has as its system Human bone marrow cells and peripheral blood mononuclear cells. Description: Stem cell clonogenic assays in methylcellulose. Type of data set: cell-based. As for the experimental part:
Human bone marrow cells and peripheral blood mononuclear cells were harvested from a subject after the administration of high doses of cyclophosphamide and G-CSF. Stem cell clonogenic assays in methylcellulose were performed with IL-3, erythropoietin, and VEGF (10 ng/mL, and 100 ng/mL). VEGF was used to determine if there are progenitor cells with self replication capacity but without adherence to extracellular matrix such as fibronectin. It was also desirable to determine if Saposin B was toxic to endothelial cell specific progenitors for hematopoietic (myeloid or erythroid) lineage cells.
These colonies contained mixture of cells indicating more than one cell lineage generated in response to VEGF. The colonies also contained spindle shaped cells which mark the presence of VEGF receptors.

B1: Saposin B: polypeptide fragment of Prosaposin (positions 190 to 269), SEQ ID NO:2; recombinantly expressed (protein)
chain: GDVCQDCIQMVTDIQTAVRTNSTFVQALVEHVKEECDRLGPGMADICKNYISQYSEIAIQMMMHMQPKEICALVGFCDEVK
Take B1: the tumor growth result in the data set with KS-SLK or KS Y-1 cells is on record as “markedly retarded”. The “CD34+/Flk-1+ progenitor growth” value in data set [1] is reported as “inhibited”. In addition, in data set [2], the “cytotoxic effect on colonies developed with IL-3 or erythropoietin” value was “no cytotoxic effect”. For the same molecule, in data set [2] (VEGF 10 ng/mL and 100 ng/mL), the “effect on colonies generated with VEGF” value was “loss of spindle shaped cells”.
